The values below come from patent US20050064384A1, “Recruitment of mst1 or mst2 protein kinase to induce apoptosis in eukaryotic cells” (priority 2001, published 2005).

The experiment addresses FLAG-tagged wild type (wt) MST1 (mouse) (UniProt Q9JI11). Put plainly: cell-based or functional assay.

FLAG-tagged wild type (wt) MST1 (mouse), sequence (Q9JI11 other isoform, or with tags, fused parts or gaps limits assumed): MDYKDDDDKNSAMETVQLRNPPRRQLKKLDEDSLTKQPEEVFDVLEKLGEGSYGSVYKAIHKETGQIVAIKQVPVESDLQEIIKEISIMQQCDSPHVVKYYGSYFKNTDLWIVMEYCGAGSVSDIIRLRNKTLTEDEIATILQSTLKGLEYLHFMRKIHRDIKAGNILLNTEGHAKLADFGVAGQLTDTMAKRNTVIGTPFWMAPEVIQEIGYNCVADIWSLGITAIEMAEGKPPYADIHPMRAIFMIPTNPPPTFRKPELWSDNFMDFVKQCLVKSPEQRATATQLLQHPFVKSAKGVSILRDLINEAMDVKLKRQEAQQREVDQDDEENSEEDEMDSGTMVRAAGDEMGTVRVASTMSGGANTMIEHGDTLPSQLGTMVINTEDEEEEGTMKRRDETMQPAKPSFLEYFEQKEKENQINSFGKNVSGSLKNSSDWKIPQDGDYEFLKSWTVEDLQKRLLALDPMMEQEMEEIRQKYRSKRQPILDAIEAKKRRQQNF

“NORECAAX (NORE fused to the Ki-Ras4B membrane-association CAAX segment) (from UniProt Q5EBH1 1-413)” showed a fraction of annexin V-stained NIH3T3 cells of 50%.
